In patent US5547932:

Molecular target: transferrin receptor on NIH3T3 cells and on C2C12 and G8 myoblasts and myotubes (Mus musculus (Mouse)) (UniProt Q62351)

For “human transferrin-polylysine conjugate (from UniProt P02787) (ligand)”, the luciferase activity was less than 1 log.
